# Data taken from paper PMC6255812, “Structural basis for activation of plasma-membrane Ca^2+-ATPase by calmodulin” (Communications Biology, 2018).
# T1: ACA8core (core of ACA8, residues 131-1074, construct lacking the regulatory domain) (UniProt Q9LF79 131-1074)
# T1 construct: Embedded in MSP1D1/POPC nanodiscs in the assay; also called core enzyme; ACA8 mutant lacking the regulatory domain
# T1 sequence (looked up): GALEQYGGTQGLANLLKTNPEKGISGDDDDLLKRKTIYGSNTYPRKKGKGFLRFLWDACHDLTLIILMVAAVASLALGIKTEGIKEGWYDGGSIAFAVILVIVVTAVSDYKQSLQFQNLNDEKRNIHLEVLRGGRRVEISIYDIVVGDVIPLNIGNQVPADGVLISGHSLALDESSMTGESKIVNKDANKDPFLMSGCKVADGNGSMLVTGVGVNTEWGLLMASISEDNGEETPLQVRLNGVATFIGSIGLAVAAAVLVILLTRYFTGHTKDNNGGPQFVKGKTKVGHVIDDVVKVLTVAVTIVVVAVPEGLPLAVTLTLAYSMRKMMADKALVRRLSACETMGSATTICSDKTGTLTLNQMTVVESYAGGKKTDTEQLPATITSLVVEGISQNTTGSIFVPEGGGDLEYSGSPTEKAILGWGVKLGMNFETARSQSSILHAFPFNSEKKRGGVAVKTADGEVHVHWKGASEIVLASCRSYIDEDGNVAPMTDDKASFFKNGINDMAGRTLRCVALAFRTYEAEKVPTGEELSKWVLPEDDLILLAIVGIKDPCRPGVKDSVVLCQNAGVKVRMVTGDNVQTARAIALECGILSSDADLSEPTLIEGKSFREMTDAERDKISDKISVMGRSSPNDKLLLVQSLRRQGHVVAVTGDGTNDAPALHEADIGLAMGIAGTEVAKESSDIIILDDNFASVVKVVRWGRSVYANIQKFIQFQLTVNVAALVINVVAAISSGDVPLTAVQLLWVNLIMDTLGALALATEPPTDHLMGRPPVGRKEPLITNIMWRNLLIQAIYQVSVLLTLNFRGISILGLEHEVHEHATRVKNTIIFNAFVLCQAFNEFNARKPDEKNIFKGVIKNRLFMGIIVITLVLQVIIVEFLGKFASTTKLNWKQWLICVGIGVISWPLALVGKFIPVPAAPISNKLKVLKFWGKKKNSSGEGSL
# Legend:
# [1] = target: T2, fluorescein-labeled CaM (CaM7 from A. thaliana) (A. thaliana, UniProt P59220 1-149, Alexa Fluor 488 C5 maleimide label (the paper also calls it fluorescein-labeled and FITC-labeled); site not stated); assay: fluorescence polarisation; fluorescence anisotropy; full-length ACA8 in POPC nanodiscs titrated into 15 nM labelled CaM; 20 °C; 30 mM Tris pH 8.0, 150 mM NaCl, 2 mM CaCl2, 0.5 mM TCEP; one-site model; apparent; settings: both partners purified
# T2 construct: calmodulin 7 (CaM7), A. thaliana; Same protein as m2 with a thiol-reactive fluorophore; also called FITC-labeled CaM; source: E. coli BL21 Gold (DE3), purified (HiTrap Phenyl HP), labelled, PD10 column
# [2] = target: T1, ACA8core (core of ACA8, residues …); assay: fluorescence polarisation; fluorescence anisotropy; 25 µM ACA8core in POPC nanodiscs titrated into 50 nM labelled ACA8RD; 20 °C; 30 mM Tris pH 8.0, 150 mM NaCl, 2 mM CaCl2, 0.5 mM TCEP; one-site model; settings: both partners purified
Kd [1] [nM],Kd [2] [nM],Binder
18,,"full-length ACA8 (plasma-membrane Ca2+-ATPase ACA8) (enzyme, Integral membrane protein; in most experiments embedded in MSP1D1 nanodiscs (POPC, POPC/POPG, POPC/soy-PI or deuterated stealth nanodiscs); The nanodisc belt protein is a carrier and not a partner; also called apo-ACA8; ACA8-ND; source: used DDM-solubilised or reconstituted in MSP1D1 nanodiscs (Superdex200)) MTSLLKSSPGRRRGGDVESGKSEHADSDSDTFYIPSKNASIERLQQWRKAALVLNASRRFRYTLDLKKEQETREMRQKIRSHAHALLAANRFMDMGRESGVEKTTGPATPAGDFGITPEQLVIMSKDHNSGALEQYGGTQGLANLLKTNPEKGISGDDDDLLKRKTIYGSNTYPRKKGKGFLRFLWDACHDLTLIILMVAAVASLALGIKTEGIKEGWYDGGSIAFAVILVIVVTAVSDYKQSLQFQNLNDEKRNIHLEVLRGGRRVEISIYDIVVGDVIPLNIGNQVPADGVLISGHSLALDESSMTGESKIVNKDANKDPFLMSGCKVADGNGSMLVTGVGVNTEWGLLMASISEDNGEETPLQVRLNGVATFIGSIGLAVAAAVLVILLTRYFTGHTKDNNGGPQFVKGKTKVGHVIDDVVKVLTVAVTIVVVAVPEGLPLAVTLTLAYSMRKMMADKALVRRLSACETMGSATTICSDKTGTLTLNQMTVVESYAGGKKTDTEQLPATITSLVVEGISQNTTGSIFVPEGGGDLEYSGSPTEKAILGWGVKLGMNFETARSQSSILHAFPFNSEKKRGGVAVKTADGEVHVHWKGASEIVLASCRSYIDEDGNVAPMTDDKASFFKNGINDMAGRTLRCVALAFRTYEAEKVPTGEELSKWVLPEDDLILLAIVGIKDPCRPGVKDSVVLCQNAGVKVRMVTGDNVQTARAIALECGILSSDADLSEPTLIEGKSFREMTDAERDKISDKISVMGRSSPNDKLLLVQSLRRQGHVVAVTGDGTNDAPALHEADIGLAMGIAGTEVAKESSDIIILDDNFASVVKVVRWGRSVYANIQKFIQFQLTVNVAALVINVVAAISSGDVPLTAVQLLWVNLIMDTLGALALATEPPTDHLMGRPPVGRKEPLITNIMWRNLLIQAIYQVSVLLTLNFRGISILGLEHEVHEHATRVKNTIIFNAFVLCQAFNEFNARKPDEKNIFKGVIKNRLFMGIIVITLVLQVIIVEFLGKFASTTKLNWKQWLICVGIGVISWPLALVGKFIPVPAAPISNKLKVLKFWGKKKNSSGEGSL"
,1700,"fluorescein-labeled regulatory domain of ACA8 (ACA8RD, residues 1-130) (domain or fragment, Alexa Fluor 488 C5 maleimide (the paper also calls it fluorescein) for labelling of the introduced cysteine, a cysteine introduced right before the first residue of the regulatory domain, for site specific labeling with thiol-reactive probes; ACA8 regulatory domain, residues 1-130; also called labeled RD; not shown: His6, N-terminal, cleaved; lipoamyl domain, N-terminal, cleaved) CMTSLLKSSPGRRRGGDVESGKSEHADSDSDTFYIPSKNASIERLQQWRKAALVLNASRRFRYTLDLKKEQETREMRQKIRSHAHALLAANRFMDMGRESGVEKTTGPATPAGDFGITPEQLVIMSKDHNS"
